Changes are numbered by the printed parent chain. Read-outs that look alike come from different tables or passages of the source.
How the values were obtained:
[1] = target: T1, human VISTA expressed on cells (human, UniProt Q9H7M9 33-311); experiment: flow cytometry, FITC anti-Fc detection; HEK293 VISTA O/E against HEK293
T1 construct: also called HEK293 VISTA O/E; HEK293T or HEK293-6E cells overexpressing human VISTA
Procedure: (§1) The cells were washed thrice with FACS buffer (PBS with 5 mM EDTA and 0.5% BSA) and resuspended in FITC-conjugated anti-FC antibody (Invitrogen, USA) for 40 min at 2-8° C. Cells were washed again and resuspended in 200 μL of FACS flow buffer (PBS with 5 mM EDTA) for flow cytometric analysis using MACSQuant 10 (Miltenyi Biotec, Germany). After acquisition, all raw data were analyzed using Flowlogic software. Cells were gated using forward and side scatter profile and Median of Fluorescence Intensity (MFI) value was determined for native and overexpressing cell populations.

[2] = target: T2, recombinant human VISTA (His-tagged) (human, UniProt Q9H7M9 33-194); experiment: competition ELISA: VSIG-3 coated, His-tagged VISTA added with the antibody, anti-His-HRP; blocked ligand VSIG-3
T2 construct: bought soluble protein (Sino Biological); also called hVISTA; human VISTA polypeptide
Procedure: Briefly, 96-well plates (Nunc, Denmark) were coated with 1 μg/ml of untagged or Fc-tagged VSIG-3 (R&D Systems, USA) in 1×PBS for 16 h at 4° C. […] Plates were subsequently washed three times with TBS-T and incubated with an HRP-conjugated anti-his secondary antibody for 1 h at room temperature. After washing, plates were developed with colorimetric detection substrate Turbo-TMB (Pierce, USA).

[3] = target: T3, recombinant mouse VISTA (His-tagged) (mouse, UniProt Q9D659 33-191); experiment: ELISA, target protein coated, absorbance 450 nm
T3 construct: also called murine VISTA; mVISTA
T3 sequence (looked up): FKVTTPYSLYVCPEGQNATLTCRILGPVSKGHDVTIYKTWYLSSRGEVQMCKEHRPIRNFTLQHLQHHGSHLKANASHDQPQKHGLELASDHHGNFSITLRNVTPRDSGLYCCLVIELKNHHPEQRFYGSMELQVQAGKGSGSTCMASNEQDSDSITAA

[4] = target: T2, recombinant human VISTA (His-tagged); experiment: ELISA, target protein coated, absorbance 450 nm
human PD-L1 [5] = target: T4, human PD-L1 (human, UniProt Q9NZQ7 19-239); experiment: ELISA, target protein coated, absorbance 450 nm
T4 construct: captured through a His tag in the BLI experiments; also called hPD-L1; B7H1/PDL-1

[6] = target: T3, recombinant mouse VISTA (His-tagged); experiment: ELISA, target protein coated, absorbance 450 nm; remark: listed apart in the source
[7] = target: T2, recombinant human VISTA (His-tagged); experiment: ELISA, target protein coated, absorbance 450 nm; remark: listed apart in the source
[8] = target: T2, recombinant human VISTA (His-tagged); experiment: ELISA, plate coated with human VISTA; unit nM from the legend paragraph 699
[9] = target: T3, recombinant mouse VISTA (His-tagged); experiment: BLI (Octet), 1:1 global fit, mouse VISTA captured
Procedure: All measurements were performed at 25° C. with agitation at 1000 rpm. […] Sensograms were referenced for buffer effects and then fitted using the Octet QK384 user software (Pall ForteBio, USA).

[10] = target: T2, recombinant human VISTA (His-tagged); experiment: BLI (Octet), 1:1 global fit, human VISTA captured
Procedure: (§2) Finally, the biosensors were incubated for 120 sec in PBS pH 7.2 to obtain the dissociation curves. Kinetic and affinity constants were calculated by global fitting of the association and dissociation data to a 1:1 binding model.

[11] = target: T3, recombinant mouse VISTA (His-tagged); experiment: ELISA, plate coated with mouse VISTA; unit nM from the legend paragraph 697
[12] = target: T2, recombinant human VISTA (His-tagged); experiment: BLI (Octet), 1:1 global fit, His-tagged human VISTA captured
[13] = target: T2, recombinant human VISTA (His-tagged); experiment: ELISA, plate coated with human VISTA; unit nM from the legend paragraph 698
human PD-L1 [14] = target: T4, human PD-L1; experiment: BLI (Octet), His-tagged human PD-L1 on anti-Penta-HIS biosensor, antibody 500-15.6 nM
Procedure: as §2

[15] = target: T2, recombinant human VISTA (His-tagged); experiment: ELISA, plate coated with human VISTA; unit nM from the legend paragraph 697
[16] = target: T3, recombinant mouse VISTA (His-tagged); experiment: ELISA, plate coated with mouse VISTA; unit nM from the legend paragraph 699
[17] = target: T3, recombinant mouse VISTA (His-tagged); experiment: BLI (Octet), 1:1 global fit, His-tagged mouse VISTA captured
[18] = target: T3, recombinant mouse VISTA (His-tagged); experiment: ELISA, plate coated with mouse VISTA; unit nM from the legend paragraph 698
[19] = target: T3, recombinant mouse VISTA (His-tagged); experiment: BLI (Octet), 1:1 global fit, His-tagged mouse VISTA captured; remark: listed apart in the source
[20] = target: T1, human VISTA expressed on cells; experiment: flow cytometry, FITC anti-Fc detection; HEK293 cells overexpressing human VISTA against HEK293 cells without VISTA
Procedure: as §1

T4 sequence (Q9NZQ7 19-239 limits assumed): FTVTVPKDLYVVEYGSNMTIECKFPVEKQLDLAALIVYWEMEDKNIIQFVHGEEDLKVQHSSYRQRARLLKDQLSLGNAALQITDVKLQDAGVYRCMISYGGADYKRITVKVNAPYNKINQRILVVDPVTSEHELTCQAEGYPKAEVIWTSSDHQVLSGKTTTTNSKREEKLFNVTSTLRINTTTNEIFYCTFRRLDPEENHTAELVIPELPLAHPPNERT

B1: anti-VISTA clone 5M1-A11 IgG1 (antibody, V domains shown)
VH: QVTLKVSGPGILQPSQTLSLTCSFSGFSLSTSGMGVSWIRQPSGKGLEWLAHIYWDDDKRYNPSLKSRLTISKDSSSNQVFLKITSVDTADTATYYCARRLDGYNDPYYFDYWGQGTTLTVSS
VL: DVVMTQTPALMSASPGEKVTMTCSASSSVSYMYWYQQKPRSSPKPWIYLTSNLASGVPARFSGSGSGTSYSLTISSMEAEDAATYYCQQWNSNPYTFGGGTKLEIKR
B1: binds [1]; binds [2].

B2: anti-VISTA clone 4M2-C9 IgG1 (antibody, V domains shown)
VH: B1 VH with V6E, S7C
VL: DIVMTQSPSSLSASLGDTVTITCHASQNVNVWLSWYQQKPGNIPKLLIYKASNLHAGVPSRFSGSGSGTGFTLTISSLQPEDIATYYCQQGQSYPLTFGGGTKLEIKR
B2: binds [1].

B3: anti-VISTA clone 13D5-1 IgG1 (antibody, V domains shown)
VH: QVQLQQSGAELVRPGTSVKISCKASGYTFTNYWLGWVKQRPGHGLEWIGDIYPGGGYTNYNEKFKGKATLTADTSSSTAYMQLSSLTSEDSAVYFCVRSGYYYGSSWYFDVWGAGTTVTVSS
VL: DVLMTQTPLSLPVSLGDQASISCRSSQSIVHSSGNTYLEWYLQKPDQSPKLLIYKVSNRFSGVPDRFSGSGSGTDFTLKISRVEAEDLGVYYCFQGSHVPPTFGGGTKLEIKR
B3: binds [3]; binds [4]; binds (human PD-L1 [5]).

B4: anti-VISTA clone 13D5-13 IgG1 (antibody, V domains shown)
VH: B3 VH with T74I, V93D, S99G
VL: B3 VL with I29T, S33I, D46G, G71E
B4: binds [6]; binds [7].

B5: anti-VISTA clone 1M2-D2 IgG1 (antibody, V domains shown)
VH: EVKVEESGGGLVQPGGSMKLSCAASGFTFSDAWMDWVHQSPEKGLEWVAEIRSKANNHATYYVESVEGRFTISRDDSKSSVFLQVNSLRPEDTGIYYCTRRDGYYFAYWGQGTLVTVSA
VL: DIVLTQSPAIMSASLGEEITLTCSASSSVRDMHWYQQKSGTSPKVLIYNTFNLASGVPSRFSGSGSGTFYSLTISSVEAGDAAAYYCHQWSSYPTFGGGTKLEIKR
B5: binds [1].

B6: anti-VISTA clone 2M1-B12 IgG1 (antibody)
heavy: not shown
light: DIQMMQSPASLSASVGETVAITCGASENIYGALNWYQRKQGKSPQLLIYGATNLADGMSSRFSGSGSGRQYSLKISSLHPDDVATYYCQNVLSTPYTFGGGTKLEIKRTVAAPSVFIFPPSDEQLKSGTASVVCLLNNFYPREAKVQWKVDNALQSGNSQESVTEQDSKDSTYSLSSTLTLSKADYEKHKVYACEVTHQGLSSPVTKSFNRGEC
B6: binds [1].

B7: anti-VISTA clone 2M1-D2 IgG1 (antibody)
heavy: not shown
light: B6 light with Q3V, M5T
B7: binds [1].

B8: anti-VISTA clone 4M2-D9 IgG1 (antibody, V domains shown)
VH: EVQLQESGPGLVKPSQSLSLTCTVTGYSITSDYAWNWIRQFPGNRLEWMGFISYSGFTTYSPSLESRISITRDTSKNQFFLQLISVTTEDTATYYCARNHYGGSYWYFDVWGAGTSVTVSS
VL: DIVMTQSPGSLAVSLGQRATISCRASESVEYYGTSLMQWYLQKPGQPPKLLIYAASNVESGVPDRFRGSGSGTDFSLNIHPVEEDDIAMYFCQQSRKVPWTFGGGTKLEIKR
B8: binds [1].

B9: anti-VISTA clone V4-C1 IgG1 (antibody, V domains shown)
VH: QVQLQESGPGLVKPSDTLSLTCTVSGYSITSDYAWNWIRQTPGKGLEWIGYITYSGYISYNPSLRSRVTISRDTSKNQFSLKLSSVTAADTAVYSCARALYYPWYFDVWGTGTTVTVSS
VL: EIVITQSPATLSLSPGERATLSCRASSSVGYIHWYQQKPGQAPRPLIYATSNRATGIPARFSGSGSGTDNTLTISSLEPEDSAVYYCQQWSSYPPITFGGGTKLEVKR
For B9, the EC50 [8] was 0.065 nM, the Kd [9] was 58.5 nM and the koff [9] was 0.0162 s⁻¹. It also gave a kon [9] of 277000 M⁻¹ s⁻¹, a Kd [10] of less than 0.001 nM and a koff [10] of less than 1e-07 s⁻¹. It also gave a kon [10] of 391000 M⁻¹ s⁻¹, an EC50 [11] of 3.1 nM and a Kd [12] of less than 0.001 nM. The koff [12] was less than 1e-07 s⁻¹, the kon [12] was 343000 M⁻¹ s⁻¹ and the EC50 [13] was 0.042 nM. The binding result (human PD-L1 [14]) was “no binding (tested: 500 nM)”, the EC50 [15] was 0.0024 nM and the EC50 [16] was 2.44 nM. It also gave a Kd [17] of 66.7 nM, a koff [17] of 0.022 s⁻¹ and a kon [17] of 330000 M⁻¹ s⁻¹. For the same binder, the EC50 [18] was 1.6 nM, the Kd [19] was 60.7 nM and the koff [19] was 0.0147 s⁻¹. The kon [19] was 243000 M⁻¹ s⁻¹.

B10: anti-VISTA clone V4-C9 IgG1 (antibody, V domains shown)
VH: B9 VH with I58V
VL: B9 VL with I4L
B10 gave an EC50 [8] of 0.107 nM, a Kd [9] of 2.88 nM and a koff [9] of 0.00104 s⁻¹. It also gave a kon [9] of 361000 M⁻¹ s⁻¹, a Kd [10] of 0.125 nM and a koff [10] of 5.6e-05 s⁻¹. The kon [10] was 450000 M⁻¹ s⁻¹, the EC50 [11] was 0.11 nM and the Kd [12] was less than 0.001 nM. It also gave a koff [12] of less than 1e-07 s⁻¹, a kon [12] of 333000 M⁻¹ s⁻¹ and an EC50 [13] of 0.03 nM. The binding result (human PD-L1 [14]) was “no binding (tested: 500 nM)”, the EC50 [15] was 0.031 nM and the EC50 [16] was 0.18 nM. It also gave a Kd [17] of 4.26 nM, a koff [17] of 0.00067 s⁻¹ and a kon [17] of 157000 M⁻¹ s⁻¹. It also gave an EC50 [18] of 0.044 nM, a Kd [19] of 3.81 nM and a koff [19] of 0.00118 s⁻¹. For the same binder, the kon [19] was 311000 M⁻¹ s⁻¹.

B11: anti-VISTA clone 4M2-D5 IgG1 (antibody, V domains shown)
VH: QVQLQQSGAELARPGASVRMSCKASGYTFTSYTMNWVKQRPGQGLEWIGFINPDSDYTTYDQKFKDKATLTADSSSSTAYMQLSSLTYDDSAVYYCTRHSYGNYGDYWGQGTTLTVSS
VL: DIVLTQSPKFLLVSAGDRVTITCKASQSVTNDVAWYQQKPGQSPKLLIYYASSRYTGVPDRFTGSGFGTDFTFTINTVQAEDLAVYFCQQDYSSPYTFGGGTKLEIKR
B11: binds [20].

B12: anti-VISTA clone 4M2-A8 IgG1 (antibody, V domains shown)
VH: QVQLQQSGADLARPGASVKMSCKASGYTFIDYTVHWVKQRPGQGLEWIGFINPSNDYTSYNQKFKDKASLTADTSSTTAYMQLSSLTSDDSAVYYCARHSYGNYGDYWGQGTTLTVSS
VL: B11 VL with L4M, S7A, D32G, S53N, N76S
B12: binds [1].

From patent publication US20250313631A1 (HUMMINGBIRD BIOSCIENCE PTE, published 2025)
